Among the data in patent US20230192818A1 (TWIST BIOSCIENCE, published 2023) are Kd values, retold here.

In test [1] the target is T1, SARS-CoV-2 S1 (Acro) (SARS-CoV-2, UniProt P0DTC2 16-685).
T1 construct: also called Acro S1
In words: SPR (Carterra).

Test [2] deals with T1, SARS-CoV-2 S1 (Acro). In words: SPR (Carterra). This is another data set of the same source.

Like-named read-outs stand apart in the source and are kept apart here.

B1: 15-3 (Fc fusion)
chain: EVQLVESGGGLVQPGGSLRLSCAASGFTFSPSWMGWFRQAPGKEREFVATINEYGGRNYADSVKGRFTISADNSKNTAYLQMNSLKPEDTAVYYCARVDRDFDYWGQGTLVTVSS
notes: also called Antibody 15-3; Antibody 15 parent
The term Kd denotes a measure of binding affinity in units of concentration. Low values mean tighter binding, high ones weaker binding. Molecule B1 displayed a dissociation constant (Kd) in test [1] of 31.5 nM.

B2: 3-31 (Fc fusion)
chain: EVQLVESGGGLVQPGGSLRLSCAASGSTFSINAMGWFRQAPGKEREFVAGITSSGGYTNYADSVKGRFTISADNSKNTAYLQMNSLKPEDTAVYYCAADGVPEYSDYASGPVWGQGTLVTVSS
notes: also called Antibody 3-31
B2: the equilibrium dissociation constant (Kd) in test [2] and in test [1] was 21 nM throughout.
